Numbering of substitutions follows the chain as printed. In names and notes the source's numbering stands.

This note sets out measurements from patent US20170342168A1 (Hoffmann-La Roche, published 2017).

For the experiment, the target named is T1, human neonatal Fc-receptor (FcRn) (human, UniProt P55899 24-297; P61769 21-119, limits assumed).
T1 construct: also called the receptor
Description: FcRn affinity chromatography.

T1 sequence (P55899 24-297 limits assumed, chain 1 of 2): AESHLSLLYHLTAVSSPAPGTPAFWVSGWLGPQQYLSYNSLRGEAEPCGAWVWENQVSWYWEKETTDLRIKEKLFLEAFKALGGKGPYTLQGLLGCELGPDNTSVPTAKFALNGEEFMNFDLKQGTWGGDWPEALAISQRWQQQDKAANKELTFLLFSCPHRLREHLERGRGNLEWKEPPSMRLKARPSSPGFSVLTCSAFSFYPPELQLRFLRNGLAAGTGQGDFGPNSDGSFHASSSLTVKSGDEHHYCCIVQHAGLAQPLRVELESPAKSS
T1 sequence (P61769 21-119 limits assumed, chain 2 of 2): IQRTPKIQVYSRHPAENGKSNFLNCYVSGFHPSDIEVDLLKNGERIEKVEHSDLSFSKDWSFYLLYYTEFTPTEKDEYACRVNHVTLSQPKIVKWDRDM

As to “anti-HER2 antibody with symmetric mutation D98E”, the retention time is 46.2 min. “anti-HER2 antibody with symmetric mutation E258H”: the retention time turned out to be 45.6 min. As for “anti-HER2 antibody with symmetric mutation E430H”, the retention time amounted to 46.4 min. In turn, “anti-HER2 antibody with symmetric mutation K288E” yielded a retention time of 45.2 min. The molecule “anti-HER2 antibody with symmetric mutation K290H” displayed a retention time of 46.2 min. Molecule “anti-HER2 antibody with symmetric mutation K317H” registered a retention time of 46.3 min. “anti-HER2 antibody with symmetric mutation L309H”: the retention time amounted to 45.5 min.

“anti-HER2 antibody with symmetric mutation N434H” registered a retention time of 52 min. “anti-HER2 antibody with symmetric mutation Q311H” returned a retention time of 46.3 min. Molecule “anti-HER2 antibody with symmetric mutation R255D” showed a retention time of 41.4 min. Take “anti-HER2 antibody with symmetric mutation T256H”: the retention time worked out at 46 min.

anti-HER2 antibody, wild-type came in with a retention time of 46.3 min.

B1: IgG1 Fc-region with L234A/L235A/P329G and H310A/H433A/Y436A (other)
chain: DKTHTCPPCPAPEAAGGPSVFLFPPKPKDTLMISRTPEVTCVVVDVSHEDPEVKFNWYVDGVEVHNAKTKPREEQYNSTYRVVSVLTVLAQDWLNGKEYKCKVSNKALGAPIEKTISKAKGQPREPQVYTLPPSRDELTKNQVSLTCLVKGFYPSDIAVEWESNGQPENNYKTTPPVLDSDGSFFLYSKLTVDKSRWQQGNVFSCSVMHEALANHATQKSLSLSPGK
notes: Symmetric mutations in both Fc chains; also called HHY-AAA
In the case of B1, the binding result was “no binding (tested: retention time below 3 minutes)”.

B2: IgG1 Fc-region with L234A/L235A/P329G and I253A/H310A/H435A (other)
chain: B1 chain with I33A, A213H, H215A, A216Y
notes: Symmetric mutations in both Fc chains; also called IHH-AAA
In the case of B2, the binding result was “no binding (tested: retention time below 3 minutes)”.

B3: IgG1 Fc-region with L234A/L235A/P329G and I253A/H310A (other)
chain: B1 chain with I33A, A213H, A216Y
notes: Symmetric mutations in both Fc chains
Consider B3, for which the binding result was “no binding (tested: retention time below 3 minutes)”.

B4: IgG1 Fc-region with L234A/L235A/P329G and I253A/H435A (other)
chain: B1 chain with I33A, A90H, A213H, H215A, A216Y
notes: as for B3
B4: the binding result is given as “no binding (tested: retention time below 3 minutes)”.

B5: IgG1 Fc-region with L234A/L235A/P329G and H310A/H435A (other)
chain: B1 chain with A213H, H215A, A216Y
notes: as for B3
Consider B5, for which the binding result is reported as “no binding (tested: retention time below 3 minutes)”.

B6: IgG1 Fc-region with L234A/L235A/P329G and H310A/Y436A (other)
chain: B1 chain with A213H
notes: as for B3
With B6, the binding result is “no binding (tested: retention time below 3 minutes)”.
